Experimental data reported in paper PMC4595643, “Pathways of allosteric regulation in Hsp70 chaperones” (Nature Communications, 2015).
Ends that are not written are not given here. * marks the point of attachment. IAANS = 2-(4'-(iodoacetamido)anilino)naphthalene-6-sulfonic acid label, O=C(C*)Nc1ccc(Nc2ccc3cc(S(=O)(=O)O)ccc3c2)cc1; HiLyte Fluor 488 maleimide = HiLyte Fluor 488-maleimide (Anaspec) label

Tests used:
Conditions in all cases: both partners purified
wild-type DnaK [1] = biological target: T1, wild-type DnaK (Escherichia coli, UniProt P0A6Y8 1-638); experiment: MST; 100 nM HiLyte Fluor 488-labelled peptide with 0.6 nM-10 μM DnaK, HKM buffer (25 mM HEPES/KOH pH 7.6, 50 mM KCl, 5 mM MgCl2) with 0.1% Tween-20, incubated at least 30 min, 30 °C, Monolith NT.115
T1 construct: DnaK, the Hsp70 of Escherichia coli; also called DnaKwt; Wt; source: E. coli ΔdnaK52 cells (BB1553), purified (Ni-IDA, Resource Q), nucleotides removed

DnaK-V440A [2] = biological target: T2, DnaK-V440A (Escherichia coli, UniProt P0A6Y8 1-638, V440A); experiment: as above
T2 construct: DnaK, the Hsp70 of Escherichia coli, Val440 replaced by alanine; source: E. coli ΔdnaK52 cells (BB1553), purified (Ni-IDA, Resource Q), nucleotides removed

DnaK-L484A [3] = biological target: T3, DnaK-L484A (Escherichia coli, UniProt P0A6Y8 1-638, L484A); experiment: as above
T3 construct: DnaK, the Hsp70 of Escherichia coli, Leu484 replaced by alanine; source: E. coli ΔdnaK52 cells (BB1553), purified (Ni-IDA, Resource Q), nucleotides removed

DnaK-D148A [4] = biological target: T4, DnaK-D148A (Escherichia coli, UniProt P0A6Y8 1-638, D148A); experiment: as above
T4 construct: DnaK, the Hsp70 of Escherichia coli, Asp148 replaced by alanine; source: E. coli ΔdnaK52 cells (BB1553), purified (Ni-IDA, Resource Q), nucleotides removed

wild-type DnaK [5] = biological target: T1, wild-type DnaK; experiment: fluorescence dissociation kinetics (chase with unlabelled peptide); no nucleotide; 0.5 μM DnaK and 0.5 μM IAANS-labelled peptide pre-incubated at least 30 min, then mixed with 50-fold excess of unlabelled peptide; HKM buffer, 30 °C; Perkin Elmer LS55
DnaK-F146A = biological target: T5, DnaK-F146A (Escherichia coli, UniProt P0A6Y8 1-638, F146A); experiment: as above
T5 construct: DnaK, the Hsp70 of Escherichia coli, Phe146 replaced by alanine; source: E. coli ΔdnaK52 cells (BB1553), purified (Ni-IDA, Resource Q), nucleotides removed

DnaK-D148A [6] = biological target: T4, DnaK-D148A; experiment: as above
DnaK-Y145F = biological target: T6, DnaK-Y145F (Escherichia coli, UniProt P0A6Y8 1-638, Y145F); experiment: as above
T6 construct: DnaK, the Hsp70 of Escherichia coli, Tyr145 replaced by phenylalanine; source: E. coli ΔdnaK52 cells (BB1553), purified (Ni-IDA, Resource Q), nucleotides removed

DnaK-Y145H = biological target: T7, DnaK-Y145H (Escherichia coli, UniProt P0A6Y8 1-638, Y145H); experiment: as above
T7 construct: DnaK, the Hsp70 of Escherichia coli, Tyr145 replaced by histidine; source: E. coli ΔdnaK52 cells (BB1553), purified (Ni-IDA, Resource Q), nucleotides removed

DnaK-Y145A = biological target: T8, DnaK-Y145A (Escherichia coli, UniProt P0A6Y8 1-638, Y145A); experiment: as above
T8 construct: DnaK, the Hsp70 of Escherichia coli, Tyr145 replaced by alanine; source: E. coli ΔdnaK52 cells (BB1553), purified (Ni-IDA, Resource Q), nucleotides removed

DnaK-D481A = biological target: T9, DnaK-D481A (Escherichia coli, UniProt P0A6Y8 1-638, D481A); experiment: fluorescence dissociation kinetics (chase with unlabelled peptide); in the presence of ATP; 0.5 μM DnaK and 0.5 μM IAANS-labelled peptide pre-incubated at least 30 min, then mixed with 50-fold excess of unlabelled peptide; HKM buffer, 30 °C; stopped flow
T9 construct: DnaK, the Hsp70 of Escherichia coli, Asp481 replaced by alanine; source: E. coli ΔdnaK52 cells (BB1553), purified (Ni-IDA, Resource Q), nucleotides removed

DnaK-D481K = biological target: T10, DnaK-D481K (Escherichia coli, UniProt P0A6Y8 1-638, D481K); experiment: as above
T10 construct: DnaK, the Hsp70 of Escherichia coli, Asp481 replaced by lysine; source: E. coli ΔdnaK52 cells (BB1553), purified (Ni-IDA, Resource Q), nucleotides removed

DnaK-V440A [7] = biological target: T2, DnaK-V440A; experiment: as above
DnaK-L484A [8] = biological target: T3, DnaK-L484A; experiment: as above

Measured: binding result

B1: HiLyte Fluor 488-labelled σ32-Q132-Q144-C (peptide)
peptide: QRKLFFNLRKTKQC(HiLyte Fluor 488 maleimide)
notes: residues Q132-Q144 of σ32, the E. coli heat shock transcription factor; cysteine added at the C-terminus of the peptide (the '-C' of its name); also called fluorescently labelled peptide derived from σ32
binds: wild-type DnaK [1] | DnaK-V440A [2] | DnaK-L484A [3] | DnaK-D148A [4]

B2: IAANS-labelled peptide σ32-Q132-Q144-C (peptide)
peptide: QRKLFFNLRKTKQC(IAANS)
notes: residues Q132-Q144 of σ32, the E. coli heat shock transcription factor; cysteine added at the C-terminus of the peptide (the '-C' of its name); also called 2-(4'-(iodoacetamido)anilino)naphthalene-6-sulfonic acid labelled σ32-Q132-Q144-C; substrate
not listed: wild-type DnaK [1] | DnaK-V440A [2] | DnaK-L484A [3] | DnaK-D148A [4]
binds: all other assays above
